Target: the molecule itself
Test: SEC; gel filtration of purified recombinant rRII-3; column and buffer not told in the text shown (Figure S3)

B1: recombinant RII-3 of P. falciparum reticulocyte binding protein homologue 1 (PfRH1), amino acids 500 to 833 (domain or fragment)
chain: LQIVQQKLLEIKQKKNDITHKVQLINHIYKNIHDEILNKKNNEITKIIINNIKDHKKDLQDLLLFIQQIKQYNILTDHKITQCNNYYKEIIKMKEDINHIHIYIQPILNNLHTLKQVQNNKIKYEEHIKQILQKIYDKKESLKKIILLKDEAQLDITLLDDLIQKQTKKQTQTQTQTQKQTLIQNNETIQLISGQEDKHESNPFNHIQTYIQQKDTQNKNIQNLLKSLYNGNINTFIDTISKYILKQKDIELTQHVYTDEKINDYLEEIKNEQNKIDKTIDDIKIQETLKQITHIVNNIKTIKKDLLKEFIQHLIKYMNERYQNMQQGYNNLTN
notes: region II amino acids 500 to 833 (334 residues); Cloned EcoRI/XhoI into pET24a(+); no cleavage of the tag is described; Primers are in Protocol S1; also called rRII-3; source: E. coli BL21-CodonPlus-RIL, purified (Ni-NTA, MonoS ion exchange); not shown: His6, C-terminal, kept
stoichiometry N: 3

Source: article PMC2438614, “Antibodies Targeting the PfRH1 Binding Domain Inhibit Invasion of Plasmodium falciparum Merozoites” (PLoS Pathogens, 2008)
